How the values were obtained:
Assay in all cases: purified protein
Assay type in all cases: biochemical, Aureobasidium melanogenum
Details in all cases: standard assay: 100 mM Na2HPO4-citric acid buffer, pH 5.0, 40 °C
purified protein [1] = substrate: CCCOC(=O)c1cc(O)c(O)c(O)c1
purified protein [2] = substrate: COC(=O)c1cc(O)c(O)c(O)c1
purified protein [3] = substrate: O=C(O[C@@H]1Cc2c(O)cc(O)cc2O[C@@H]1c1cc(O)c(O)c(O)c1)c1cc(O)c(O)c(O)c1
purified protein [4] = substrate: O=C(O[C@@H]1Cc2c(O)cc(O)cc2O[C@@H]1c1ccc(O)c(O)c1)c1cc(O)c(O)c(O)c1
purified protein [5] = substrate: O=C(O[C@@H]1Cc2c(O)cc(O)cc2O[C@H]1c1cc(O)c(O)c(O)c1)c1cc(O)c(O)c(O)c1

B1: TanA (Aureobasidium melanogenum) (protein)
chain: SKDCSKATFQKVIPSNSTFNYVTKVAEGGTFTDAEANANATGLPEGCAVSVKVPTPGNSSYNMAIYMPNKWNSRIITTGNGGYGGFTNWQDLGQYSHYGFSAITTDTGHFNPNVLDSTFALNKGSLENWGWRAMHGSVLVGKALSAAYYGQTHKFSYYSGCSTGGRQGLKEMQVSPDAFDGVFVGAPAWWIPHLSIWTSQATLANLPQNSDHHISAALANVINDEILKQCDPQDGVTDNVIMNPAGCVFNPLTLLCEGAANASACITRPQLDTLYKALHDWTYFDGTLIFPVPSLGTPLVAYIGDSPIPNPMGTGAIEHMLLNTTEPYDWSTFNESVVRLSEAIDPGHGTPDNYDLSTFQKRGGKVIHWHGEADPIIPFRSSSYFYSQVASSVAPHDIEMDSFYKFFPIAGMSHCSGSQYSPWYIAGATQPLTNVSHGVPGFDDAQHNGLLALMRWVENGTAPEQLVATKYNNDDPTKGVYRQRPLCPFPKQPIYTHGNVDSASSWKCS
notes: codon-optimised, signal peptide (first 19 of 528 residues) removed; 6xHis tag kept; secreted by Yarrowia lipolytica, Ni-IDA purified
Protein B1 has a Km (purified protein [1]) of 1710 µM, a Km (purified protein [2]) of 2810 µM and a Km (purified protein [3]) of 2520 µM. The Km (purified protein [4]) was 2130 µM and the Km (purified protein [5]) was 1860 µM.

— PMC8861512, “Characterization and Secretory Expression of a Thermostable Tannase from Aureobasidium melanogenum T9: Potential Candidate for Food and Agricultural Industries” (Frontiers in Bioengineering and Biotechnology, 2022)
